{"source": "patent US8993741B2", "about": "“SMNdelta7 degron: novel compositions and methods of use” (The Trustees of the University of Pennsylvania, priority 2009, dated 2015)", "key": {"293T cells [1]": {"system": "293T cells", "experiment": "Level of HA-tagged SMN proteins, Western blot with anti-HA antibody", "format": "cell-based", "conditions": "without MG132 treatment", "method": "FIG. 3, comprising FIG. 3A through FIG. 3D, is a series of images depicting the importance of residue S270 for the activity of the SMNΔ7-DEG through YG+EMLA. FIG. 3A is a schematic illustration depicting seven residues in the YG box that were each mutated to alanine, as indicated. […] depicts the results of Western blot analyses using an anti-HA tag antibody directed against HA-tagged SMN, SMNΔ7, and SMNΔ7^S270A expressed in 293T cells treated with DMSO or 10 μM MG132 (MG) for 16 hours. Fusion proteins were monitored by, and Magoh was used as a control. FIG. 3C is a graph depicting the quantification of HA-tagged proteins depicted in FIG. 3B and compared to HA-SMN without MG132 treatment. Protein amount (%) for SMNΔ7, and SMNΔ7^S270A are calculated relative to HA-SMN not treated with MG132, that is arbitrarily set to 100%. The fold change of each fusion protein amount upon MG132 treatment is indicated in red above the column. […]\nTo identify specific residues in the SMN07-DEG that are important for its activity, mutagenesis of the YG box was performed wherein every second residue was converted to alanine in the context of full-length SMNΔ7 and determined the half-life of each in 293T cells. […] The levels of the tagged SMN proteins were then monitored by Western blots using anti-HA antibody (FIG. 3B)."}, "S5 cells": {"system": "S5 cells", "experiment": "Rescue of S5 cell viability after tetracycline depletion of SMN", "format": "cell-based, chicken", "conditions": "retroviral expression, one week after tetracycline (1 μg/ml)", "method": "FIG. 4, comprising FIG. 4A through FIG. 4D, is a series of images depicting the functionality of SMNΔ7^S270A in snRNP assembly and its ability to rescue SMN-deficient cells. FIG. 4 A is a series of panels depicting S5 cells cultured in the presence of tetracycline (1 μg/ml) to deplete endogenous SMN and infected with retroviruses expressing SMN, SMNΔ7, or SMNΔ7^S270A. FIG. 4B is a graph depicting cell growth as in FIG. 4A measured by monitoring the number of live cells at the indicated time points following tetracycline addition. FIG. 4C depicts the results of Western blot analyses of SMN protein in rescued cells (10 days after tetracycline addition). FIG. 4D is a graph depicting SMN complex activity (%) as measured by in vitro snRNP assembly on U4 snRNA in cytoplasmic extracts from rescued cells, using U4ΔSm RNA as a control.\nS5 cells were maintained and infected with retroviruses expressing SMN, SMNΔ7, and SMNΔ7^S270A as described (Wang et al., 2001, J. Biol. Chem. 276:9599).\nTo determine whether SMNΔ7^S270A is a functional SMN protein, a previously established cell system, the S5 cell line, was used to investigate if SMNΔ7^S270A could rescue the viability of SMN-depleted cells. […]"}, "293T cells [2]": {"system": "293T cells", "experiment": "Protein stability assay: luciferase activity of Luc-fused constructs after CHX treatment", "format": "cell-based", "conditions": "Luc fusion in 293T cells, CHX 0.1 mg/ml, up to 10 hours", "text": "To construct plasmids expressing Luc-fused proteins, the luciferase gene was cloned into pcDNA3.1 vector at HindIII/KpnI sites, then DNA fragments encoding full-length wild type human SMN, SMNΔ7, several deletion mutants of SMNΔ7, and optiPEST were inserted into the KpnI/XhoI sites. SMNΔ7 mutants with single amino acid change were generated by mutating residues in YG+EMLA to alanine by Quickchange site-directed mutagenesis kit (Stratagene).\nCells (293T cells) were transfected with plasmids expressing various constructs including Luc-SMN, Luc-SMNΔ7, GFP-YG+EMLA or GFP-NS. Forty-eight hours after transfection, the cells were treated with CHX (0.1 mg/ml) for various times as indicated and then assayed for luciferase activity. Luciferase activity at each time point was calculated by comparison to those at time 0, which was set to 100%. Luciferase activities were measured using One-Glo reagent (Promega).\nA reporter system that recapitulates the differential stability of full-length SMN and SMNΔ7 and allows quantitative assessment of SMNΔ7's instability determinants was developed. […] Forty-eight hours after transfection, cells were treated with the protein synthesis inhibitor cycloheximide (CHX), and luciferase activity was measured at time intervals of up to 10 hours. […]"}}, "data": [{"molecule": "SMNΔ7: SMN protein from exon 7 skipping, lacks C-terminal 16 amino acids and acquires EMLA (protein, listed as Homo sapiens) MAMSSGGSGGGVPEQEDSVLFRRGTGQSDDSDIWDDTALIKAYDKAVASFKHALKNGDICETSGKPKTTPKRKPAKKNKSQKKNTAASLQQWKVGDKCSAIWSEDGCIYPATIASIDFKRETCVVVYTGYGNREEQNLSDLLSPICEVANNIEQNAQENENESQVSTDESENSRSPGNKSDNIKPKSAPWNSFLPPPPPMPGPRLGPGKPGLKFNGPPPPPPPPPPHLLSCWLPPFPSGPPIIPPPPPICPDSLDDADALGSMLISWYMSGYHTGYYMEMLA", "values": [{"measurement": "amount of HA-tagged protein", "setting": "293T cells [1]", "value": "much lower than that of SMN"}, {"measurement": "rescue of viability of SMN-depleted S5 cells", "setting": "S5 cells", "value": "did not"}, {"measurement": "half-life (t1/2)", "setting": "293T cells [2]", "value": "~3", "unit": "h"}]}]}
